# Measurements from patent US20210140973A1 (NITTO BOSEKI, published 2021).
# T1: GST-tagged peptide H32 (H10 with lysine for arginine at position 289) (human, UniProt P01861 221-325 = IgG part)
# T1 construct: not shown: GST tag (glutathione S-transferase) linked to the N terminal, expressed from vector pGEX-6P-1
# T1 chain: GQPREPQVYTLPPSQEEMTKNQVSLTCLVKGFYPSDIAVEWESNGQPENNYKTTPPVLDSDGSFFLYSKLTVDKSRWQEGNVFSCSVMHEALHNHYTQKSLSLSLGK
# T2: GST-tagged peptide H37 (H10 with R289K and L325P) (human, UniProt P01861 221-324 = IgG part)
# T2 construct: not shown: N-terminal GST tag (from vector pGEX-6P-1) and any vector linker
# T2 chain: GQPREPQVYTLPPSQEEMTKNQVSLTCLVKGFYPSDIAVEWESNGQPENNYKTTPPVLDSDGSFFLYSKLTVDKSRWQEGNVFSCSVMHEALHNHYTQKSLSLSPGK
# T3: H-39
# T3 construct: not shown: N-terminal GST tag and the vector-coded linker of pGEX-6P-1
# T3 chain: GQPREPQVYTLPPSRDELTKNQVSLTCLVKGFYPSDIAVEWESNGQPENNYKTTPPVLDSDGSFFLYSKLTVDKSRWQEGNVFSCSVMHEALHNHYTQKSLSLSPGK
# T4: GST-tagged peptide H35 (H10 with Q235R, R289K, E299Q and L325P) (human, UniProt P0DOX5 343-449 = IgG part)
# T4 construct: not shown: N-terminal GST tag (from vector pGEX-6P-1) and any vector linker
# T4 chain: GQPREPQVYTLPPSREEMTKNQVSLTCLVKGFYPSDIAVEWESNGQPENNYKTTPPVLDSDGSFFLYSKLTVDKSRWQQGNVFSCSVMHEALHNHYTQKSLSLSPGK
# Columns and labels:
# Test in all cases: Western blot: E. coli lysate with the GST-tagged peptide, SDS-PAGE, PVDF membrane, POD-labelled antibody diluted 1000-fold, ECL
# [1] = target: T5, GST-tagged peptide H36 (positions 221 to 327 with the human IgG4 specific sequence replaced by the … (human, UniProt P0DOX5 343-449 = IgG part))
# T5 construct: not shown: GST tag (glutathione S-transferase) linked to the N terminal, expressed from vector pGEX-6P-1
# Procedure: (§1) Based on the designed amino acid sequences, base sequences suitable for expressing protein in E. coli were designed according to the protocol of GenScript Corporation, thereby preparing vector pGEX-6P-1 (GE Healthcare Bio-Sciences Corp.) to which the respective base sequences are inserted. The prepared expression plasmid was introduced to E. coli BL 21 strain, thereby obtaining a transformant. The transformant was cultured by an ordinary method and a protein expression was induced by IPTG. After the cells were collected by centrifugation, the cells were dissolved with an ordinary lysis solution, and subjected to ultrasonication. 6 μL of an SDS sample buffer solution was added to 6 μL of the obtained lysate. The respective prepared samples were subjected to a heat treatment at 95° C. for 5 minutes. 10 μL of the E. coli disrupted sample was added to each well of 5 to 20% electrophoresis gel (Atto Corportation) to which an SDS electrophoresis buffer solution was added. Similarly, a molecular weight standard (Bio-Rad Laboratories, Inc.) was added to each well and electrophoresed. After completing the electrophoresis, the electrophoresis gel was transcribed to a PVDF membrane (Millipore Corporation) with a transfer buffer solution. The PVDF membrane was immersed in a membrane blocking buffer solution, and then shaking was carried out at room temperature for 30 minutes. Amino groups of MaI4-08, MaI4-09, and MaI4-05-produced antibodies were subjected to a POD labeling treatment with a POD labeling kit (Dojindo Molecular Technologies, Inc.). The obtained labeled antibodies each were diluted 1000-fold by PBST. After the PVDF membrane was cleaned with PBST, the antibody solutions prepared each were added to the PVDF membrane, and then the reaction was performed at room temperature for 1 hour. After the PVDF membrane was cleaned by PBST, a signal was detected with ECL Prime Western Blotting Detection Reagents (GE Healthcare) with Image Quant Las4000.
# [2] = target: T6, GST-tagged peptide H11 (positions 275 to 327 of the human IgG4 heavy chain constant region) (human, UniProt P01861 275-325 = IgG part)
# T6 construct: E. coli lysate on Western blot; not shown: GST tag (glutathione S-transferase) linked to the N terminal, expressed from vector pGEX-6P-1
# Procedure: as §1
# [3] = target: T7, GST-tagged peptide H34 (H10 with proline for leucine at position 325) (human, UniProt P01861 221-324 = IgG part)
# T7 construct: not shown: GST tag (glutathione S-transferase) linked to the N terminal, expressed from vector pGEX-6P-1
# Procedure: as §1
# [4] = target: T1, GST-tagged peptide H32 (H10 with lysine …)
# Procedure: as §1
# [5] = target: T2, GST-tagged peptide H37 (H10 with R289K …)
# Procedure: as §1
# [6] = target: T8, GST-tagged peptide H2 (positions 1 to 274 of the human IgG4 heavy chain constant region) (human, UniProt P01861 1-274 = IgG part)
# T8 construct: E. coli lysate on Western blot; not shown: GST tag (glutathione S-transferase) linked to the N terminal, expressed from vector pGEX-6P-1
# Procedure: as §1
# [7] = target: T9, GST-tagged peptide H7 (positions 56 to 327 of the human IgG4 heavy chain constant region) (human, UniProt P01861 56-325 = IgG part)
# T9 construct: E. coli lysate on Western blot; not shown: GST tag (glutathione S-transferase) linked to the N terminal, expressed from vector pGEX-6P-1
# Procedure: as §1
# [8] = target: T10, GST-tagged peptide H5 (positions 1 to 110 of the human IgG4 heavy chain constant region) (human, UniProt P01861 1-110 = IgG part)
# T10 construct: E. coli lysate on Western blot; not shown: GST tag (glutathione S-transferase) linked to the N terminal, expressed from vector pGEX-6P-1
# Procedure: as §1
# H-39 = target: T3, H-39
# Procedure: as §1
# [9] = target: T4, GST-tagged peptide H35 (H10 with Q235R, …)
# Procedure: as §1
# T8 sequence (P01861 1-274): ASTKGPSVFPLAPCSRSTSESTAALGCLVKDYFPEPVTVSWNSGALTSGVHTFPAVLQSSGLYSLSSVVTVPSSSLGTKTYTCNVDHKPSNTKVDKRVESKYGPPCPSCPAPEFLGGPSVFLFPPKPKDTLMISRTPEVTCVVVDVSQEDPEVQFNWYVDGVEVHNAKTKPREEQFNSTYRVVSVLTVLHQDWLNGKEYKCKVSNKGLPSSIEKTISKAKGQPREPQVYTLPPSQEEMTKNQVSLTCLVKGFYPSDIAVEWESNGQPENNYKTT
# T10 sequence (P01861 1-110): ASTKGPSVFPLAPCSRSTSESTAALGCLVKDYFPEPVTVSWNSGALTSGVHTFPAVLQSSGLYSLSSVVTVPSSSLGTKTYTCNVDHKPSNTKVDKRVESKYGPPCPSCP
binder,measurement,setting,value
"MaI4-08-produced antibody (antibody, IgG1, V domains shown, Purified on protein G from hybridoma culture supernatant; POD-labelled for the Western blots) VH: EVQLQQSGPELVKPGTSVKMSCKASGYIFTSYILHWVKQKPGQGLEWIAYINPYNDGTKYKEKFKGKGTLTSDKSSSTAYMELSSLTSEDSAVYYCARSGGGYGNYAWFAYWGPGTLVTVST VL: DIQMTQSPSSLSASLGERVSLTCRASQDIGSSLNWLQQEPDGTIKRLIYATSSLDSGVPKRFSGSRSGSDYSLTISSLESEDFVDYYCLQYASYPPTFGAGTKLELK",binding result,[1],no binding
same,binding result,[2],no binding
same,binding result,[3],binds
same,binding result,[4],binds
same,binding result,[5],binds
same,binding result,[6],no binding
same,binding result,[7],binds
same,binding result,[8],no binding
same,binding result,H-39,binds
same,binding result,[9],no binding
